{"source": "patent US20210063414A1", "about": "“METHODS FOR PREVENTING AND/OR TREATING BONE LOSS CONDITIONS BY MODULATING IRISIN” (Dana-Farber Cancer Institute, Inc., priority 2018, published 2021)", "molecules": {"B1": {"name": "irisin: secreted cleaved form of FNDC5; recombinant human/mouse irisin with C-terminal his tag produced in HEK293 cells (protein)", "chain": "DSPSAPVNVTVRHLKANSAVVSWDVLEDEVVIGFAISQQKKDVRMLRFIQEVNTTTRSCALWDLEEDTEYIVHVQAISIQGQSPASEPVLFKTPREAEKMASKNKDEVTMKE", "modifications": "left off: small tags and cut ends", "notes": "secreted cleaved form of FNDC5; recombinant human/mouse irisin with C-terminal his tag produced in HEK293 cells"}}, "key": {"[1]": {"system": "primary inguinal fat cells", "test": "Ucp1 mRNA in primary inguinal fat cells", "type": "cell-based, mice", "settings": "irisin during 6 days differentiation", "method": "FIG. 18A-FIG. 18B show mRNA and protein levels of indicated genes. 1 mg/kg irisin was injected to 8-week old mice every other day for 6 days. mRNA levels of indicated genes in inguinal fat were analyzed by qRT-PCR. Cyclophilin was used for housekeeping gene (FIG. 18A). Inguinal fats were also lysed to detect the indicated protein level using immunoblot analysis (FIG. 18B). FIGS. 18C and 18D show mRNA and protein levels of indicated genes. Mice were treated and analyzed as (A-B) with addition of coinjection of […] control RGD peptide or cyclo RGDyK (cRGDyK). mRNA levels of indicated genes in inguinal fat were analyzed by qRT-PCR. Cyclophilin was used for house-keeping gene (FIG. 18C). Inguinal fats were also lysed to detect the indicated protein level using immunoblot analysis (FIG. 18D). […] Ucp1 mRNA level was analyzed by qRT-PCR. […]\nInguinal fat tissue from 6 weeks old mice was dissected and washed with PBS, minced and digested for 1 hour at 37° C. in PBS containing 10 mM CaCl2, 2.4 U/ml dispase II (Roche) and 10 mg/ml collagenase D (Roche). […] After that, cells were maintained in 1 μM rosiglitazone in the presence of 0, 0.5, 5 or 50 ng/ml recombinant […] his-tag irisin protein for 4 days with medium change every other day. mRNA levels were analyzed as described in gene expression analysis. […]"}, "sclerostin": {"system": "sclerostin", "test": "Irisin injection in mice: sclerostin mRNA in osteocyte-enriched bones and plasma sclerostin protein (ELISA)", "type": "in vivo", "settings": "irisin IP daily for 6 days", "method": "8 weeks old mice were injected daily with indicated dose of irisin for 6 days. […] were collected and treated with collagenase to yield osteocyte-enriched bones. Sclerostin mRNA level from osteocyte-enriched tibia was analyzed by qPCR (FIG. 7A). Cyclophilin was used as a house-keeping gene. Plasma was collected to analyze the circulating sclerostin protein level by ELISA assay (FIG. 7B). Data are represented as mean±SEM. For FIG. 7A and FIG. 7B, n=5 animals/group. * indicates p<0.05, and *** indicates p<0.001.\nCertain materials and methods were used to generate the results described herein. For example, the data shown in FIG. 1A resulted from MLO-Y4 (an osteocyte-like cell line) cells treated with the indicated concentration of irisin and hydrogen peroxide for 4 hours. Cells were stained with Hoechst 33342 (ThermoFisher Scientific, catalog number H3570) and Eth-D1 (ThermoFisher Scientific, catalog number E1169) and analyzed to determine the percentage of cell death using ImageJ. […] Co-precipitated irisin was analyzed by immunoblot analysis against flag tag (Sigma Aldrich, catalog number A8592). The data shown in FIGS. 5A and 5B were generated from MLO-Y4 cells treated and analyzed as in the experiments used to generate the data shown in FIG. 2D, except that pre-treatment of 100 nM RGDS (FIG. 5A) or echistatin (R & D Systems Inc., catalog number 3202/100U) (FIG. 5B) for 10 minutes was performed before irisin treatment. […] RNAs were extracted from the cells and the sclerostin mRNA level was analyzed by qPCR (FIG. 6A) or treated and analyzed as in (FIG. 6A), except that pre-treatment of 10 μM RGDS, RGDyK (Selleck, catalog number S7844), or echistatin was performed for 10 minutes before irisin treatment. […] Sclerostin mRNA level was analyzed by qPCR (FIG. 7A). […] Epididymal fats were collected, RNAs were extracted from the tissues, and mRNA levels of the indicated genes were analyzed by qPCR. […]"}}}
{"molecule": "B1", "values": [{"measurement": "gene expression of Ucp1", "setting": "[1]", "result": "increased the gene expression of Ucp1"}, {"measurement": "sclerostin mRNA in osteocyte-enriched bones", "setting": "sclerostin", "result": "stimulated sclerostin mRNA"}, {"measurement": "circulating (plasma) sclerostin protein", "setting": "sclerostin; ELISA", "result": "significant increase"}, {"measurement": "sclerostin mRNA in osteocyte-enriched bones", "setting": "sclerostin; listed as recombinant irisin", "result": "raised the sclerostin mRNA level"}]}
